# Results from the RNAGym collection of RNA variant scans (doi:10.1093/molbev/msab373).
# B1: Azoarcus group I ribozyme (parent)
# chain: GUGCCUUGCGCCGGGAAACCACGCAAGGGAUGGUGUCAAAUUCGGCGAAACCUAAGCGCCCGCCCGGGCGUAUGGCAACGCCGAGCCAAGCUUCGGCGCCUGCGCCGAUGAAGGUGUAGAGACUAGACGGCACCCACCUAAGGCAAACGCUAUGGUGAAGGCAUAGUCCAGGGAGUGGCGAAAGUCACACAAACCGG
# Variants of: B1
# Assay: reverse-splicing fitness (ratio to wild type); higher = more active; in vitro selection; Mg2+ level not given
# How it was run: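 An in vitro group I ribozyme library with randomized positions was T7-transcribed and gel-purified. In triplicate, 10 pmol RNA in EPPS pH 7.5 was reacted with 50 pmoles of a 30-nt RNA substrate for 1 h at 37 °C across several added MgCl2 levels (1–48 mM), then stopped with EDTA. Products were reverse transcribed from a substrate-complementary primer, PCR-amplified and sequenced (HiSeq 4000). Fitness is a variant's read proportion after selection over that before, normalised to wild type.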
row,Variant,reverse-splicing fitness
1,A111U A145C C150U C169A U176G,0.00703
2,A111U A145C C150U C169A U176A,0.0117
3,A111U A120U A145U C169U U176G,0.00258
4,A111U A120U A145U C169U U176A,0.0087
5,A111U A120U A145U C169U U176C,0.0174
6,A111U A120U C150U,0.374
7,A111U A120U C150G,0.045
8,A111U A120U C150A,0.0595
9,A111U A145C C150A C169A U176C,0.00656
10,A111U A145C C150A C169A U176G,0.00617
11,A111U A145C C150A C169A U176A,0.0128
12,A111U A120U A145C C150G C169A U176A,0.00234
13,A111U A120U A145C C150G C169A U176G,0.00254
14,A111U A120U A145C C150G C169A U176C,0.00276
15,A111U A120U C150G C169G U176A,0.00371
16,A111U A120U C150G C169G U176C,0.00285
17,A111U A120U C150G C169G U176G,0.00237
18,A111U A120U A145U C150G C169G U176G,0.00207
19,A111U A120U A145U C150G C169G U176A,0.00294
20,A111U A120U A145U C150G C169G U176C,0.00228
21,A111U A120U A145U U176A,0.241
22,A111U A120U A145U U176G,0.0645
23,A111U A120U A145U U176C,0.281
24,A111U A120U A145C U176A,0.194

row,Variant,reverse-splicing fitness
1,A111U A120U A145C U176C,0.168
2,A111U A120U A145C U176G,0.0539
3,A111U A145C C150U C169G U176G,0.00741
4,A111U A145C C150U C169G U176C,0.0135
5,A111U A145C C150U C169G U176A,0.0212
6,A111U A120U C169G U176C,0.00937
7,A111U A120U C169G U176A,0.00625
8,A111U A120U C169G U176G,0.00197
9,A111U A120U A145C C150U,0.15
10,A111U A120U A145C C150G,0.0741
11,A111U A120U A145C C150A,0.0261
12,A111U A145C C150G,0.426
13,A111U A145C C150A,0.23
14,A111U A145C C150U,0.661
15,A111U A120U A145G C150U C169U U176G,0.00291
16,A111U A120U A145G C150U C169U U176C,0.0144
17,A111U A120U A145G C150U C169U U176A,0.0115
18,A111U A145C C150G C169G U176G,0.00549
19,A111U A145C C150G C169G U176C,0.00846
20,A111U A145C C150G C169G U176A,0.00774
21,A111U A120U A145C C169A U176A,0.0026
22,A111U A120U A145C C169A U176G,0.00152
23,A111U A120U A145C C169A U176C,0.00249
24,A111U A120U C150U U176G,0.027

row,Variant,reverse-splicing fitness
1,A111U A120U C150U U176A,0.125
2,A111U A120U C150U U176C,0.171
3,A111U A120G C169G U176G,0.00419
4,A111U A120G C169G U176A,0.0412
5,A111U A120G C169G U176C,0.0539
6,A111U A120U A145C C150G C169U U176A,0.00301
7,A111U A120U A145C C150G C169U U176G,0.00228
8,A111U A120U A145C C150G C169U U176C,0.0029
9,A111U A120U A145C C169G U176G,0.00199
10,A111U A120U A145C C169G U176A,0.00441
11,A111U A120U A145C C169G U176C,0.00515
12,A111U A120U A145C C150A C169U U176G,0.00241
13,A111U A120U A145C C150A C169U U176A,0.00285
14,A111U A120U A145C C150A C169U U176C,0.00285
15,A111U A120U A145U C150G U176G,0.0043
16,A111U A120U A145U C150G U176C,0.0208
17,A111U A120U A145U C150G U176A,0.0111
18,A111U A120U A145C C169U U176A,0.00945
19,A111U A120U A145C C169U U176G,0.00245
20,A111U A120U A145C C169U U176C,0.00989
21,A111U A145C C150A U176G,0.0517
22,A111U A145C C150A U176C,0.127
23,A111U A145C C150A U176A,0.103
24,A111U A120U A145U C150A C169U U176C,0.00324

row,Variant,reverse-splicing fitness
1,A111U A120U A145U C150A C169U U176G,0.00245
2,A111U A120U A145U C150A C169U U176A,0.00294
3,A111U A120U A145U C169A,0.00401
4,A111U A120U A145U C169G,0.0519
5,A111U A120U A145U C169U,0.0617
6,A111U A120U A145C C150U C169U U176A,0.0036
7,A111U A120U A145C C150U C169U U176C,0.00285
8,A111U A120U A145C C150U C169U U176G,0.0019
9,A111U A120U A145C C150A C169G U176C,0.00308
10,A111U A120U A145C C150A C169G U176A,0.00297
11,A111U A120U A145C C150A C169G U176G,0.00184
12,A111U A120U A145U C150G C169U U176C,0.0031
13,A111U A120U A145U C150G C169U U176G,0.00222
14,A111U A120U A145U C150G C169U U176A,0.00295
15,A111U A120U,0.634
16,A111U A120G C169U U176A,0.0505
17,A111U A120G C169U U176G,0.00807
18,A111U A120G C169U U176C,0.055
19,A111U A120U A145C C150A C169A U176C,0.00287
20,A111U A120U A145C C150A C169A U176A,0.00272
21,A111U A120U A145C C150A C169A U176G,0.00243
22,A111U A120U C150G C169A U176A,0.00451
23,A111U A120U C150G C169A U176G,0.00232
24,A111U A120U C150G C169A U176C,0.0037

row,Variant,reverse-splicing fitness
1,A111U A120U C150U C169A U176A,0.00464
2,A111U A120U C150U C169A U176G,0.00214
3,A111U A120U C150U C169A U176C,0.00279
4,A111U A120U A145G C150G C169A,0.00796
5,A111U A120U A145G C150G C169U,0.0125
6,A111U A120U A145G C150G C169G,0.01
7,A111U A120G C150U C169U,0.0857
8,A111U A120G C150U C169G,0.112
9,A111U A120G C150U C169A,0.0593
10,A111U A120U A145G C150G U176C,0.0225
11,A111U A120U A145G C150G U176A,0.01
12,A111U A120U A145G C150G U176G,0.00387
13,A111U A145C C150U C169G,0.0177
14,A111U A145C C150U C169U,0.0312
15,A111U A145C C150U C169A,0.0113
16,A111U A145C,0.974
17,A111U A120U C150A C169A U176C,0.00348
18,A111U A120U C150A C169A U176A,0.00475
19,A111U A120U C150A C169A U176G,0.00251
20,A111U A120G C150U U176A,0.0266
21,A111U A120G C150U U176G,0.00616
22,A111U A120G C150U U176C,0.0413
23,A111U A120U A145G C150U C169A U176A,0.00497
24,A111U A120U A145G C150U C169A U176C,0.00389

row,Variant,reverse-splicing fitness
1,A111U A120U A145G C150U C169A U176G,0.00237
2,A111U A120U C150G C169A,0.00749
3,A111U A120U C150G C169G,0.00802
4,A111U A120U C150G C169U,0.00855
5,A111U A120U A145U C169G U176A,0.00482
6,A111U A120U A145U C169G U176G,0.00201
7,A111U A120U A145U C169G U176C,0.00666
8,A111U A120G C169U,0.155
9,A111U A120G C169A,0.116
10,A111U A120G C169G,0.218
11,A111U A120U A145G C169U U176G,0.00258
12,A111U A120U A145G C169U U176C,0.0176
13,A111U A120U A145G C169U U176A,0.0114
14,A111U A120U A145C C150G U176C,0.0148
15,A111U A120U A145C C150G U176A,0.0107
16,A111U A120U A145C C150G U176G,0.00337
17,A111U A120G C150U,0.0899
18,A111U A120U A145G C150A C169U U176G,0.00312
19,A111U A120U A145G C150A C169U U176C,0.00537
20,A111U A120U A145G C150A C169U U176A,0.00532
21,A111U A120U A145U C150A C169A U176G,0.00154
22,A111U A120U A145U C150A C169A U176A,0.00284
23,A111U A120U A145U C150A C169A U176C,0.00214
24,A111U A120U C169U U176G,0.00332

row,Variant,reverse-splicing fitness
1,A111U A120U C169U U176C,0.0202
2,A111U A120U C169U U176A,0.0126
3,A111U A120U A145U C150A C169U,0.00692
4,A111U A120U A145U C150A C169A,0.00249
5,A111U A120U A145U C150A C169G,0.0047
6,A111U A120U C150U C169G,0.0274
7,A111U A120U C150U C169U,0.0369
8,A111U A120U C150U C169A,0.00484
9,A111U A120U C150U C169U U176C,0.0116
10,A111U A120U C150U C169U U176A,0.0088
11,A111U A120U C150U C169U U176G,0.00287
12,A111U A120U A145G C150U C169A,0.00694
13,A111U A120U A145G C150U C169U,0.0617
14,A111U A120U A145G C150U C169G,0.0377
15,A111U A120U C150G U176G,0.00286
16,A111U A120U C150G U176C,0.0189
17,A111U A120U C150G U176A,0.00718
18,A111U A120U A145C C150U C169G U176G,0.00222
19,A111U A120U A145C C150U C169G U176A,0.0032
20,A111U A120U A145C C150U C169G U176C,0.00276
21,A111U A120U C169A U176C,0.00373
22,A111U A120U C169A U176A,0.00255
23,A111U A120U C169A U176G,0.00214
